Experimental data as given in paper PMC2866327, “Designed Inhibitors of Insulin-Degrading Enzyme Regulate the Catabolism and Activity of Insulin” (PLoS ONE, 2010).
One block for each binder: values may come before it. Square brackets hold non-standard residues; d marks the D form. Ends that are not written are not given here. 2Nal = N[C@@H](Cc1ccc2ccccc2c1)C(=O)O; d2Nal = N[C@H](Cc1ccc2ccccc2c1)C(=O)O

Target: T1, insulin-degrading enzyme (recombinant human IDE) (human, UniProt P14735 1-1019)
T1 construct: insulin-degrading enzyme, human, recombinant; source: recombinant, purified from bacteria [33]
Assay: enzyme inhibition assay (Ki); recombinant human IDE (nominal 1 nM); dose-response of the hydrolysis of IDE substrates (FRET1, SP1, FAβB, 125I-insulin, or insulin by HTRF); the substrate used for the Ki values in the text is not stated
Details: both partners purified

fold gain in potency (relative Ki) against Phe at P1': ~100 fold
B1: retro-inverso peptide hydroxamate Xaa-Arg-Tyr with 2-naphthylalanine (2-Nap) at P1' (peptide)
chain: [d2Nal]-[dR]-[dY]
modifications: also: retro-inverso backbone, hydroxamic acid next to P1', P1' said to be a β-amino acid

Ki: ~1.7 nM
B2: Ii1 (IDE inhibitor 1), conventional peptide hydroxamate incorporating 2-Nap at the P1' position (peptide)
chain: [2Nal]RWE
modifications: also: N-terminal hydroxamic acid moiety, structure not given here
